Test results from US11459364B2, “Calbindin and BH3 domain chimeric proteins and methods for use” (ProDa Biotech LLC, priority 2014, dated 2022).

Tested on: SW620 cells
Assay: Cell viability of SW620 cells by cell counting after treatment with folate-conjugated chimeric proteins
Assay type: cell-based
Conditions: 5 μM, Calbindin D9k host, folate by disulfide bond via 5 kDa PEG, 48 hours
Protocol: (§1) FIG. 3 illustrates the effects of chimeric proteins having different host peptides and the BH3 domain of Bid on the apoptosis of SW620 cells. […] The SW620 cells were treated with 5 μM of the indicated proteins. The proteins were conjugated to folate by a disulfide bond via a 5 kDa PEG. Cell viability was measured by cell counting 48 hours after treatment with the indicated proteins. Buffer treated cells were used as a reference (100% cell viability). The error bars indicate standard deviations across five repeating experiments.
as §1, with “FIG. 4” for “FIG. 3”, “having a Calbindin D9k host peptide and” for “having”, “different” for “different host peptides and the”, “BH3 domains” for “BH3 domain of Bid”, “(100%” for “(100% cell”
FIG. 7 illustrates the effects of a chimeric protein with a Calbindin D9k host protein, a Bid or Bim BH3 domain, and a conjugated folate on SW620 cells. […] Cell viability was measured by counting cells 48 hours after treatment with the indicated proteins. […]

B1: D-Nox: chimeric protein, Calbindin D9k host with BH3 domain of Noxia, Sequence Id No. 8; tested conjugated to folate (protein)
chain: HMSTKKSPEELKRIFEKYAAKEGDPDQLSKDELKLLIQAEFPCLLKGPNTLDDLFQELDKNPAELEVEMATQLRRFGDKLNFRQKLL
modifications: folate conjugate; Chimeric Variant of human protein and a variant of a BH3 domain
notes: tested conjugated to folate
  induction of apoptosis (cell viability), comparison of BH3 domains: most effective in inducing apoptosis
